Experimental findings from patent US20180237480A1 (UNIVERSITY OF EDINBURGH, published 2018) are described below.

Holding throughout (assay): solid phase adherence assay, L. lactis on coated plates, absorbance 590 nm
For one test, the target named is T1, human fibrinogen (human, UniProt P02671 20-629; P02675 31-491; P02679 27-437).
T1 construct: The three chains are general knowledge about fibrinogen; also called human Fg
T1 sequence 1: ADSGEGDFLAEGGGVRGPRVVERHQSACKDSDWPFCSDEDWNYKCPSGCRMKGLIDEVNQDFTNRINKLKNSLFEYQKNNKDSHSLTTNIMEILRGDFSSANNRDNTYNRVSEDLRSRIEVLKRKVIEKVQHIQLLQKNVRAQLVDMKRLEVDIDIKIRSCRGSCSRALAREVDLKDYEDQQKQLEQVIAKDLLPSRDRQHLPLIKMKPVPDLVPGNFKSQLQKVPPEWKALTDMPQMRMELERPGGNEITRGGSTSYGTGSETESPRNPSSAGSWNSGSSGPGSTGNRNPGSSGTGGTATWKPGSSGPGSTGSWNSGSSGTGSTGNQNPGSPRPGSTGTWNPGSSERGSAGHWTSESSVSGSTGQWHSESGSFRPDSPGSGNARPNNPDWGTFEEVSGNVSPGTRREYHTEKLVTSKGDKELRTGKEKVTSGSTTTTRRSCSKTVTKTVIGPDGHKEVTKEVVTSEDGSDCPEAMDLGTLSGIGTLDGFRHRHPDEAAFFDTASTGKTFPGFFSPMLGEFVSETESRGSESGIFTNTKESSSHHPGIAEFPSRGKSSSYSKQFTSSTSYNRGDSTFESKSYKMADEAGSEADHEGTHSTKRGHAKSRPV
T1 sequence 2: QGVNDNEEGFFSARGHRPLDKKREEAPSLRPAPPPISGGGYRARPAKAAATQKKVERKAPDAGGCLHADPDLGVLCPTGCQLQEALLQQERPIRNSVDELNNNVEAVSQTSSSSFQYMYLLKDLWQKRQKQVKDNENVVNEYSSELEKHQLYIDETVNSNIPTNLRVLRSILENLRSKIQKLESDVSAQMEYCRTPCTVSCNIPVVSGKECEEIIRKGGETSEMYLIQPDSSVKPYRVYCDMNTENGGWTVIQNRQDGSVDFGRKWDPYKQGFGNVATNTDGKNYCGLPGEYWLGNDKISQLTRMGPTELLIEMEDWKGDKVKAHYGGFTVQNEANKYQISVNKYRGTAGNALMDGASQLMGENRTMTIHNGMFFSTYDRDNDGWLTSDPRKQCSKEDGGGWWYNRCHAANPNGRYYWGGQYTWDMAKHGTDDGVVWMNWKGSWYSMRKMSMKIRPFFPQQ
T1 sequence 3: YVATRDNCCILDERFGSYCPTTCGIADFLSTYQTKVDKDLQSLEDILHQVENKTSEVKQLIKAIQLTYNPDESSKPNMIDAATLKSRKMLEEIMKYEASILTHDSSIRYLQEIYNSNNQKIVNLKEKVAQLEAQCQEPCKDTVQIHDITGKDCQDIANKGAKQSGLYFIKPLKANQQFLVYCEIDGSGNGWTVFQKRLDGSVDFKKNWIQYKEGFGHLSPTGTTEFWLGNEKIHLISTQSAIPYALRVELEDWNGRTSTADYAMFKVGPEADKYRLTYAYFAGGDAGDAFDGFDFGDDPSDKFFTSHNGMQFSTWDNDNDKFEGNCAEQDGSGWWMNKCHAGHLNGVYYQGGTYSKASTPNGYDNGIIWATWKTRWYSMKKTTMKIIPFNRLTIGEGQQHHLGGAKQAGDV

The next test deals with T2, bovine fibrinogen (bovine, UniProt P02672 20-615; P02676 1-468; P12799 25-444).
T2 construct: The three chains are general knowledge about fibrinogen; also called bovine Fg
T2 sequence 1: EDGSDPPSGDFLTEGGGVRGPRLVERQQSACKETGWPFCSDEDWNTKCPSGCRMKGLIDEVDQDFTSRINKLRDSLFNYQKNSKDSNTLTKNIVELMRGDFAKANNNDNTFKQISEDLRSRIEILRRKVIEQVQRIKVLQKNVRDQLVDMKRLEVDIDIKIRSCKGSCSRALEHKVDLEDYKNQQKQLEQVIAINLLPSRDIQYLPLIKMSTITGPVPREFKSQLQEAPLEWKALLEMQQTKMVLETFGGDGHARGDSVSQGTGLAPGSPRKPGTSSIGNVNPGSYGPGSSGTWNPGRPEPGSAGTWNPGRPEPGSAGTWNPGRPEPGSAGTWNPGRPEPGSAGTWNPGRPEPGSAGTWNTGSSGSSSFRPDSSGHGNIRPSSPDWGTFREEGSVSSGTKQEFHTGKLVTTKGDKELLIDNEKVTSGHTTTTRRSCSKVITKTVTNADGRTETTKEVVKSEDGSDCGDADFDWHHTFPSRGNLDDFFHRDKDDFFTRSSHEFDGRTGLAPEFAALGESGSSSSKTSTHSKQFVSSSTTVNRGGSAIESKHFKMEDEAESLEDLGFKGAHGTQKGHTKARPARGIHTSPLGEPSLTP
T2 sequence 2: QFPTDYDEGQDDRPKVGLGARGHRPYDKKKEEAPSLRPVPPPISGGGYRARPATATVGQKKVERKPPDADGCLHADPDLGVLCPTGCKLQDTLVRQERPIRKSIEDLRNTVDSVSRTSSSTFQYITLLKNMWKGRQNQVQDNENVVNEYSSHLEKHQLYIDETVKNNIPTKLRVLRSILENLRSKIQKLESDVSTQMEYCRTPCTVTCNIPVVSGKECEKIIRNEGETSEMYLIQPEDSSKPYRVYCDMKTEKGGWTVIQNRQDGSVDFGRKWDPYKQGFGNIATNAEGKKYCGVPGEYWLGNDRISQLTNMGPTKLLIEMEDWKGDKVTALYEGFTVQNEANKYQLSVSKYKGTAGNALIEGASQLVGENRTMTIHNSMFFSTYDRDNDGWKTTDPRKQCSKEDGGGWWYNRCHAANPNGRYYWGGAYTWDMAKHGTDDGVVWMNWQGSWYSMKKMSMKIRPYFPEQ
T2 sequence 3: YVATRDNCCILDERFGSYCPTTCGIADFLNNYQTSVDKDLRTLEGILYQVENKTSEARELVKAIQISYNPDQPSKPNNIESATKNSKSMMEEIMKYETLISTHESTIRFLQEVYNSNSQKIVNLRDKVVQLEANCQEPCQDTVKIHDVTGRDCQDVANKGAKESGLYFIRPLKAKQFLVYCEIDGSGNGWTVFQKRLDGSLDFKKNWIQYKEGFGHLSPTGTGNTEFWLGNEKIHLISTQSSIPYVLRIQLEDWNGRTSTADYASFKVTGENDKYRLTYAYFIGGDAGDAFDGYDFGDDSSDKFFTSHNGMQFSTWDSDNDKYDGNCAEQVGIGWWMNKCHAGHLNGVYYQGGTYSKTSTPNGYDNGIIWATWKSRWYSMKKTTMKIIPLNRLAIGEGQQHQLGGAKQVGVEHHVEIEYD

Test [1] addresses T3, recombinant mouse cytokeratin 10 (mouse, UniProt P02535 454-570).
T3 construct: also called CK10; recombinant CK10
T3 sequence: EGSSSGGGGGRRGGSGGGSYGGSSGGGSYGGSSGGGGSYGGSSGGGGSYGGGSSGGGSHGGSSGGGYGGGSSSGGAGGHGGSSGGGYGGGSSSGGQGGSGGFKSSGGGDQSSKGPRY

B1: SpsL of S. pseudintermedius ED99, full-length, expressed on L. lactis MG1363 (pOri23) (other)
chain: NEDVTETTGRNSVTTQASEQHLQVEAVPQEGNNVNVSSVKVPTNTATQAQEDVASVSDVKAHADDALQVQESSHTDGVSSEFKQETAYANPQTAETVKPNSEAVHQSEYEDKQKPVSSSRKEDETMLQQQQVEAKNVVSAEEVSKEENTQVMQSPQDVEQHVGGKDISNEVVVDRSDIKGFNSETTIRPHQGQGGRLNYQLKFPSNVKPGDQFTIKLSDNINTHGVSVERTAPRIMAKNTEGATDVIAEGLVLEDGKTIVYTFKDYVNGKQNLTAELSVSYFVSPEKVLTTGTQTFTTMIGNHSTQSNIDVYYDNSHYVDGRISQVNKKEAKFQQIAYINPNGYLNGRGTIAVNGEVVSGTTKDLMQPTVRVYQYKGQGVPPESITIDPNMWEEISINDTMVRKYDGGYSLNLDTSKNQKYAIYYEGAYDAQADTLLYRTYIQSLNSYYPFSYQKMNGVKFYENSASGSGELKPKPPEQPKPEPEIQADVVDIIEDSHVIDIGWNTAVGEESGANQGPQEEITENHDIEVIEENNLVEMTEDTAVGEESGANQGPQEEITENHDIEVIEENNLVEMTEDTALEEESGANQGPQEEITENHDIEVIEENNLVEMTEDTALEEESGANQGPQEEITENHDIEVIEENNLVEMTEDTAVGEESGANQGPQEEITENHDIEVIEENNLVEMTEDTAVGEESGANQGPQEEITENHDIEVIEENNLVEMTEDTALEEESGANQGPQEEITENHNIEVIEENNLVEMTEDTAVGEESGANPGPQEEVTENQPQQEEIMENQEVEKKGDSNLVESTKTPKAEESVSVQPTLEDKNTKNHVNTVVVNTKVSEVKEKDPHHTKALPDTGTTSRSHSMMIPLLLVAGSVVLLRRKKKHSKVN
notes: also called L. lactis expressing SpsL; putative MSCRAMM SpsL
For the molecule B1, the binding result in the test with human fibrinogen is recorded as “no binding (tested: 1 µg Fg coated per well)”; with bovine fibrinogen, “no binding (tested: 1 µg Fg coated per well)”; in test [1], “no binding (tested: 1 µg CK10 coated per well)”.

B2: SpsO of S. pseudintermedius ED99, full-length, expressed on L. lactis MG1363 (pOri23) (other)
chain: SVKEGQQSINSSEKESADPTVVDLISKKETNLDGLDVSREETTKVPINENKRGEEQSISDKAITEKADTPVSNLSSKEVEEQGVSDKAITEKADTPVTNLSSKEAKEQGASDRVITEKADTPVSNLSSKEAKEQGASDRVITEKADTPVSNLSSKEVEEQGVSDKAIEKIADASATDLSSKEEVEQDISTQGKVKSKEAVQVESSQLQNLNSEINAEPNEIKAIDRSSILPLNLNDEENNKKVNKGTRVPEATLRNASNNQLNTRMRSVSLFRVARLTEINRNVNDKVKVSDIDIAIAPPHTNPKTGKEEFWATSSSVLKLKASYELDNSISKGDQFTIQFGQNIRPGGLNLPRPYNFLYDKDKKLVATGRYNKESNTITYTFTDYVDKHQNIKGSFEMNAFSRKENATTDKTAYPMDVTIANQKYSENIIVDYGNKKNAAIISSTEYIDLDGSRKMTTYINQNGSKNSIYRADMQIDLNGYKFDPSKNNFKIYEVENSSDFVDSFSPDVSKLRDVTSQFNIQYTNNNTMAKVDFGTNLWRGKKYIIQQVANIDDSKLVKNASINYTLNKMDFNNKRTVETHNNTYSTVKDKSTALGDVQESQSISESQSVSESESLSESQSISESESLSESQSISESESLSESQSISESESLSESQSISESESLSESQSISESESLSESQSISESESLSESQSISESESLSESQSISESESLSESQSISESESLSESQSISESESLSESQSISESESLSESQSISESESLSESQSISESESLSESQSISESESLSESQSISESESLSESQSISESESLSESQSISESESLSESQSISESESLSESQSISESESLSESQSISESESLSESQSISESESLSESQSISESESLSESQSISESESLSESQSISESESLSESQSISESESLSESQSISESESLSESQSISESESLSESQSISESESLSESQSISESESLSESQSVSESESLSESQSISESESLSESQSISESESLSESQSISESESLSESQSISESESLSESQSISESESLSESQSISESESLSESQSISESESLSESQSISESESLSESQSISESESLSESQSISESESLSESQSISESESLSESQSISESESLSESQSISESESLSESQSISESESLSESQSVSESESLSESQSISESESLSESQSISESESLSESQSISESESLSESQSISESESLSESQSISESESLSESQSISESESLSESQSISESESLSESQSVSESESLSESQSISESESLSESQSISESESLSESQSISESESLSESQSISESESLSESQSISESESLSESQSISESESLSESQSISESESLSESQSISESESLSESQSISESESLSESQSISESESLSESQSISESESLSESQSISESESLSESQSISESESLSESQSISESESLSESQSISESESLSESQSISESESLSESQSISESESLSESQSISESESLSESQSISESESLSESQSISERESLSESQSISESESLSESQSISESESLSESQSISESESLSESQSISESESLSESQSISESESLSESQSISESESLSESQSISESESLSESQSISESESLSESQSISESESLSESQSISESESLSESQSVSESESLSESQSISESESLSESQSISESESLSESQSISESESLSESQSISESESLSESQSISESESLSESQSISESESLSESQSISESESLSESQSISESESLSESQSISESESLSESQSISESESLSESQSISESESKSLPNTGTGEKISNYPGILGGLLSILGISLLKRKDREKKLGQKSNK
notes: also called L. lactis expressing SpsO; putative MSCRAMM SpsO
Turning to B2, the binding result is “no binding (tested: 1 µg Fg coated per well)” in the test with human fibrinogen, “no binding (tested: 1 µg Fg coated per well)” with bovine fibrinogen and “no binding (tested: 1 µg CK10 coated per well)” in test [1].
